B1: AH receptor-interacting protein (Homo sapiens), O00170 (parent)
chain: MADIIARLREDGIQKRVIQEGRGELPDFQDGTKATFHYRTLHSDDEGTVLDDSRARGKPMELIIGKKFKLPVWETIVCTMREGEIAQFLCDIKHVVLYPLVAKSLRNIAVGKDPLEGQRHCCGVAQMREHSSLGHADLDALQQNPQPLIFHMEMLKVESPGTYQQDPWAMTDEEKAKAVPLIHQEGNRLYREGHVKEAAAKYYDAIACLKNLQMKEQPGSPEWIQLDQQITPLLLNYCQCKLVVEEYYEVLDHCSSILNKYDDNVKAYFKRGKAHAAVWNAQEAQADFAKVLELDPALAPVVSRELRALEARIRQKDEEDKARFRGIFSH
partner: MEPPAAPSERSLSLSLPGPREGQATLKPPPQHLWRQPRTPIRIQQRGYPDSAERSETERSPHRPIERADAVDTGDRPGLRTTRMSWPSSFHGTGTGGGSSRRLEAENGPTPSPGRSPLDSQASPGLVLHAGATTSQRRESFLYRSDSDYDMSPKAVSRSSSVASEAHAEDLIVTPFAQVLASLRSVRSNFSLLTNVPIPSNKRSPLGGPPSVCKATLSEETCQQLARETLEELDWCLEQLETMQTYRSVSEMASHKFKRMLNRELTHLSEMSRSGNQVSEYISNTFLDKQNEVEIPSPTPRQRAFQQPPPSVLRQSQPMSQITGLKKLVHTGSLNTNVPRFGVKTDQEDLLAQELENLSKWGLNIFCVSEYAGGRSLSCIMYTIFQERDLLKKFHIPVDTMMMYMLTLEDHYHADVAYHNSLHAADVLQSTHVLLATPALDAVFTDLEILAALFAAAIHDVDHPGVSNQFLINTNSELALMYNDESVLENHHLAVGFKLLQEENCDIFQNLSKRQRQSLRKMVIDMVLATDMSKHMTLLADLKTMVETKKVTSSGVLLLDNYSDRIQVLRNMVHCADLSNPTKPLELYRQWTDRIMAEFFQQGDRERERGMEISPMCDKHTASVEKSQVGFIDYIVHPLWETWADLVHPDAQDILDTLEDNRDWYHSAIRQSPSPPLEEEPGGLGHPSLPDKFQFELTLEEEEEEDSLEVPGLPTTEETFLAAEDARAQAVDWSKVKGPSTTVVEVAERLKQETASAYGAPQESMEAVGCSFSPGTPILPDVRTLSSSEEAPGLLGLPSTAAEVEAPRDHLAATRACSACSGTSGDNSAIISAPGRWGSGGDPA

Variants of: B1
Settings: with pde4a_rat Pde4a

| Variant | effect of a mutation on the interaction |
| --- | --- |
| MADIIARLREDGIQKHVIQEGRGELPDFQDGTKATFHYRTLHSDDEGTVLDDSRARGKPMELIIGKKFKLPVWETIVCTMREGEIAQFLCDIKHVVLYPLVAKSLRNIAVGKDPLEGQRHCCGVAQMREHSSLGHADLDALQQNPQPLIFHMEMLKVESPGTYQQDPWAMTDEEKAKAVPLIHQEGNRLYREGHVKEAAAKYYDAIACLKNLQMKEQPGSPEWIQLDQQITPLLLNYCQCKLVVEEYYEVLDHCSSILNKYDDNVKAYFKRGKAHAAVWNAQEAQADFAKVLELDPALAPVVSRELRALEARIRQKDEEDKARFRGIFSH [R16H] | decreasing interaction strength |
| MADIIARLREDGIQKRVIQEGRGELPDFQDGTKATFHYRTLHSDDEGTVLDDSRARGKPMELIIGKKFKLPVWETIVCTMREGEIAQFLCDIKHVVLYPLVAKSLRNIAVGKDPLEGQRHCCGVAQMREHSSLGHADLDALQQNPQPLIFHMEMLKVESPGTYQQDPWAMTDEEKAKAVPLIHQEGNRLYREGHVKEAAAKYYDAIACLKNLQMKEQPGSPEWIQLDQQITPLLLNYCQCKLVVEEYYEVLDHCSSVLNKYDDNVKAYFKRGKAHAAVWNAQEAQADFAKVLELDPALAPVVSRELRALEARIRQKDEEDKARFRGIFSH [I257V] | decreasing interaction strength |
| MADIIARLREDGIQKRVIQEGRGELPDFQDGTKATFHYRTLHSDDEGTVLDDSRARGKPMELIIGKKFKLPVWETIVCTMREGEIAQFLCDIKHVVLYPLVAKSLRNIAVGKDPLEGQRHCCGVAQMREHSSLGHADLDALQQNPQPLIFHMEMLKVESPGTYQQDPWAMTDEEKAKAVPLIHQEGNRLYREGHVKEAAAKYYDAIACLKNLQMKEQPGSPEWIQLDQQITPLLLNYYQCKLVVEEYYEVLDHCSSILNKYDDNVKAYFKRGKAHAAVWNAQEAQADFAKVLELDPALAPVVSRELRALEARIRQKDEEDKARFRGIFSH [C238Y] | disrupting interaction strength |
| MADIIARLREDGIQKRVIQEGRGELPDFQDGTKATFHYRTLHSDDEGTMLDDSRARGKPMELIIGKKFKLPVWETIVCTMREGEIAQFLCDIKHVVLYPLVAKSLRNIAVGKDPLEGQRHCCGVAQMREHSSLGHADLDALQQNPQPLIFHMEMLKVESPGTYQQDPWAMTDEEKAKAVPLIHQEGNRLYREGHVKEAAAKYYDAIACLKNLQMKEQPGSPEWIQLDQQITPLLLNYCQCKLVVEEYYEVLDHCSSILNKYDDNVKAYFKRGKAHAAVWNAQEAQADFAKVLELDPALAPVVSRELRALEARIRQKDEEDKARFRGIFSH [V49M] | with no effect |
| MADIIARLREDGIQKRVIQEGRGELPDFQDGTKATFHYRTLHSDDEGTVLDDSRARGKPMELIIGKKFKLPVWETIVCTMREGEIAQFLCDIKHVVLYPLVARSLRNIAVGKDPLEGQRHCCGVAQMREHSSLGHADLDALQQNPQPLIFHMEMLKVESPGTYQQDPWAMTDEEKAKAVPLIHQEGNRLYREGHVKEAAAKYYDAIACLKNLQMKEQPGSPEWIQLDQQITPLLLNYCQCKLVVEEYYEVLDHCSSILNKYDDNVKAYFKRGKAHAAVWNAQEAQADFAKVLELDPALAPVVSRELRALEARIRQKDEEDKARFRGIFSH [K103R] | disrupting interaction strength |
| MADIIARLREDGIQKRVIQEGRGELPDFQDGTKATFHYRTLHSDDEGTVLDDSRARGKPMELIIGKKFKLPVWETIVCTMREGEIAQFLCDIKHVVLYPLVAKSLRNIAVGKDPLEGQRHCCGVAQMREHSSLGHADLDALQQNPQPLIFHMEMLKVESPGTYQQDPWAMTDEEKAKAVPLIHQEGNRLYREGHVKEAAAKYYDAIACLKNLQMKEQPGSPEWIQLDQQITPLLLNYCQCELVVEEYYEVLDHCSSILNKYDDNVKAYFKRGKAHAAVWNAQEAQADFAKVLELDPALAPVVSRELRALEARIRQKDEEDKARFRGIFSH [K241E] | disrupting interaction strength |

More lines, now with the values ahead:

| effect of a mutation on the interaction | Variant |
| --- | --- |
| disrupting interaction strength | MADIIARLREDGIQKRVIQEGRGELPDFQDGTKATFHYRTLHSDDEGTVLDDSRARGKPMELIIGKKFKLPVWETIVCTMREGEIAQFLCDIKHVVLYPLVAKSLRNIAVGKDPLEGQRHCCGVAQMREHSSLGHADLDALQQNPQPLIFHMEMLKVESPGTYQQDPWAMTDEEKAKAVPLIHQEGNRLYREGHVKEAAAKYYDAIACLKNLQMKEQPGSPEWIQLDQQITPLLLNYCQCKLVVEEYYEVLDHCSSILNKYDDNVKAYFKWGKAHAAVWNAQEAQADFAKVLELDPALAPVVSRELRALEARIRQKDEEDKARFRGIFSH [R271W] |
| decreasing interaction strength | MADIIARLREDGIQKRVIQEGRGELPDFQDGTKATFHYRTLHSDDEGTVLDDSRARGKPMELIIGKKFKLPVWETIVCTMREGEIAQFLCDIKHVVLYPLVAKSLRNIAVGKDPLEGQRHCCGVAQMREHSSLGHADLDALQQNPQPLIFHMEMLKVESPGTYQQDPWAMTDEEKAKAVPLIHQEGNRLYREGHVKEAAAKYYDAIACLKNLQMKEQPGSPEWIQLDQQITPLLLNYCQCKLVVEEYYEVLDHCSSILNKYDDNVKAYFKRGKAHAAVWNAQEAQADFAKVLELDPALAPVVSQELRALEARIRQKDEEDKARFRGIFSH [R304Q] |
| decreasing interaction strength | MADIIARLREDGIQKRVIQEGRGELPDFQDGTKATFHYRTLHSDDEGTVLDDSRARGKPMELIIGKKFKLPVWETIVCTMREGEIAQFLCDIKHVVLYPLVAKSLRNIAVGKDPLEGQRHCCGVAQMREHSSLGHADLDALQQNPQPLIFHMEMLKVESPGTYQQDPWAMTDEEKAKAVPLIHQEGNRLYREGHVKEAAAKYYDAIACLKNLQMKEQPGSPEWIQLDQQITPLLLNYCQCKLVVEEYYEVLDHCSSILNKYDDNVKAYFKRGKAHAAVWNAQEAQADFAKVLELDPALVPVVSRELRALEARIRQKDEEDKARFRGIFSH [A299V] |

From IntAct's records for PubMed 20506337
